Laboratory results published in patent US20260035459A1, “HUMANIZED CHIMERIC ANTIGEN RECEPTORS TARGETING THE B-CELL RECEPTOR OF CHRONIC LYMPHOCYTIC LEUKEMIA AND USES THEREOF” (AVA LIFESCIENCE GMBH, priority 2022, published 2026).

Assays:
[1] = system: wild-type IGLV3-21G110-variant; assay: FACS binding assay on BCR-expressing TKO cells (germline control); set-up: species or system human; details: fluorescently labeled anti-mouse IgG
From the text: (§1) The screening for positive clones was not performed by enzyme linked immunosorbent assay (ELISA) as usual. Since the target structure is a membrane-bound receptor, it is of central importance to validate the binding of the potential antibodies in a cellular system, i.e. while largely preserving the cell physiological states native to this cell type. First, groups of pooled supernatants were examined for binding events using fluorescence activated cell sorting (FACS) analysis. For this purpose different BCR variants were expressed on the surface of a triple knockout (TKO) cell line, which cannot express BCR itself.
(§2) For reconstitution with a ‘BCR of interest’, the corresponding sequence coding for the VH was fused with a human IgM constant segment by polymerase chain reaction (PCR), and heavy (HC) and light (LC) chains were cloned into respective expression vectors each having a CMV promoter. These were introduced into the packaging cell line (Phoenix cell line) by lipofection. After 36 hours of incubation, the virus supernatant was removed and used for spinfection of the TKO cells. BCR expression was determined using anti-IgM and anti-LC antibodies on FACS. For this purpose, some cells were taken and stained with 5 μl antibody each in a total volume of 100 μl in PBS. Both the work to extract the supernatants and the spinfection of the TKO are widely known procedures and known to experts. […]

[2] = biological target: T1, IGHV3-21/IGLV3-21^R110 BCR (Homo sapiens, UniProt P80748); assay: FACS binding assay on BCR-expressing TKO cells; details: fluorescently labeled anti-mouse IgG
T1 construct: a complete light chain (LC) DNA covering IGLV3-21^R110 were synthesized; expressed in transfected cells; host or cells: murine triple knockout (TKO) pro-/pre-B cells, retroviral spinfection
T1 sequence (P80748 with tags, fused parts or gaps V22E/Q35K/G42A/V66I/D68Y/S112G): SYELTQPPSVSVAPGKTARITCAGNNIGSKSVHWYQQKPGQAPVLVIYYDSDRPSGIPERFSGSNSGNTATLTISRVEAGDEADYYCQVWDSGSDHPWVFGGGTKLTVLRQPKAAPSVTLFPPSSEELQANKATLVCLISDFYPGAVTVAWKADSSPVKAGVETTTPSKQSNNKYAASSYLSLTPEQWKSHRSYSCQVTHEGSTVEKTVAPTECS
From the text: as §1, §2

[3] = system: OCI-LY1 R110 cell line (OCIR110); assay: In-vitro cytotoxicity assay (IncuCyte Caspase-3/7), OCI-LY1 R110; format: cell-based, human; details: construct 1: IgG4 hinge spacer; construct 2: additional CH2-CH3 spacer
Description: Neoepitope (i.e. cancer-specific peptide) engineered cell line OCI-LY1 R110 expressing the IGLV3-21^R110 light chain as part of a BCR with induced R110 point mutation was generated from OCI-LY1 wt cells. First, OCI-LY1 wt cells were cultivated in RPMI 1640 Medium, GlutaMAX™ Supplement (Thermo Fisher, Cat. 61870044) supplemented with 20% (v/v) FBS (Life Technologies, Cat. 10500064) and 1% (v/v) penicillin-streptomycin (10,000 U/mL) (Thermo Fisher, Cat. 15140122) at 37° C. in a humidified atmosphere including 5% CO2. […]
Target cells seeded at 2×10^4 cells/well in a 96-well plate were co-incubated with effector cells at effector-to-target (E: T) ratio 5:1 in complete CTL medium consisting of RPMI 1640 Medium GlutaMAX™ Supplement (Thermo Fisher, Cat. 61870044) supplemented with 10% (v/v) FBS (Life Technologies, Cat. 10500064), 1% (v/v) penicillin-streptomycin (10,000 U/mL) (Thermo Fisher, Cat. 15140122), 50 μM β-mercaptoethanol (Thermo Fisher, Cat. 31350010) and 50 U/mL IL-2 (StemCell, Cat. 78036.1). CAR T cell mediated tumor cell killing was assessed using the IncuCyte@ Caspase-3/7 Green Reagent for Apoptosis (Sartorius, Cat. 4440) according to the manufacturer's instructions. Read out of dead (-green-fluorescent) target cells was performed on an
IncuCyte@ S3 (Sartorius) after 2 to 16 hours or 4 to 36 hours. The killing graphs were calculated by the IncuCyte@ software (version 2022A). […]

wild-type IGLV3-21G110-variant, sequence (as listed by the source): as the sequence (P80748 with tags, fused parts or gaps V22E/Q35K/G42A/V66I/D68Y/S112G) above, with R110G counted along it
wild-type IGLV3-21G110-variant, sequence (P01871 with tags, fused parts or gaps partner): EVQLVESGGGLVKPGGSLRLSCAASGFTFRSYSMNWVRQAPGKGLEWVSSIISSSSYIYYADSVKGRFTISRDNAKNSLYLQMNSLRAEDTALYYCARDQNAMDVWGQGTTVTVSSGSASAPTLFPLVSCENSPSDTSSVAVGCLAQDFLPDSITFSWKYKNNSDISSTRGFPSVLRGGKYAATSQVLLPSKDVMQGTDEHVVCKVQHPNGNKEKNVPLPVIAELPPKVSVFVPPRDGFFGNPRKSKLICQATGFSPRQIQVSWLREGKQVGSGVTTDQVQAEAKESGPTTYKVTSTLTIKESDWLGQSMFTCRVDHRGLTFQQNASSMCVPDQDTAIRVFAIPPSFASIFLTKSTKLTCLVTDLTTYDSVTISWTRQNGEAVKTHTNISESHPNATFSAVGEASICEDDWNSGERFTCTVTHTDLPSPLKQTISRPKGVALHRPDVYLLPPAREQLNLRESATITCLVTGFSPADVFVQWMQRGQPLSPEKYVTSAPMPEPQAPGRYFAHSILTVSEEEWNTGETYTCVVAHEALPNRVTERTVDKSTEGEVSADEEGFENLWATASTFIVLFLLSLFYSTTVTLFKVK
wild-type IGLV3-21G110-variant, sequence (P11911 29-220 partner): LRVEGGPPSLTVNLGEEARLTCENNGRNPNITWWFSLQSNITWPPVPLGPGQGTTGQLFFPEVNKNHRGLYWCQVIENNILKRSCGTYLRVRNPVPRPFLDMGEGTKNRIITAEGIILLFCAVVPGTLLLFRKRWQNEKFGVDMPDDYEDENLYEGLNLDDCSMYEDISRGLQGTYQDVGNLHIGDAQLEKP
wild-type IGLV3-21G110-variant, sequence (P15530 26-228 partner): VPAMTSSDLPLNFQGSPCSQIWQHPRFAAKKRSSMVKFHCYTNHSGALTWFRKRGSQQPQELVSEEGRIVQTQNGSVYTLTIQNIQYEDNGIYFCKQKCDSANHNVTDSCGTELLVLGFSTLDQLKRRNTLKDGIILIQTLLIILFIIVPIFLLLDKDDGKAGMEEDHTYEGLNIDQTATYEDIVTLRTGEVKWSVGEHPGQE

binding to IGLV3-21^R110-BCRs [2] | Molecule | binding to wild-type IGLV3-21G110-variant [1] | killing capacity, CAR construct 1 versus CAR construct 2 [3]
high specificity and cross-reactivity | mAb01-01: murine monoclonal anti-IGLV3-21^R110 antibody, VL SEQ ID NO: 44, VH SEQ ID NO: 45 (antibody, listed as Mus musculus, V domains shown) VH: QVQLQQSGPGLVQPSQSLSITCTVSGFSLTSYGIHWVRQSPGKGLEWLGVIWRGGGTDSNAAFMSRLSITKDNSKSQVFFKMNSLQADDTAIYYCARSRYDEEESMNYWGQGTSVTVSS VL: QIVLTQSPASLSASVGETVTITCRASGNIHSYLAWYQQKQGKSPQLLVYNAKTLADGVPSRFSGSGSGTQYSLKINSLQPEDFGSYYCQHFWNTPPTFGAGTKLELK | without any detectable binding | 
 | H1: humanized anti-IGLV3-21^R110 CAR, VL SEQ ID NO: 7, VH SEQ ID NO: 11, scFv SEQ ID NO: 13 (protein) scFv: EIVLTQSPSSLSASVGDSVTITCRASGNIHSYLAWYQQKPGKAPKLLIYNAKTLADGVPSRFSGSGSGTQYTLTISSLQPEDFATYYCQHFWNTPPTFGAGTKLELKGGGGSGGGGSGGGGSGGGGSQVQLQESGPGLVKPSETLSLTCTVSGFSLTSYGIHWIRQSPGRGLEWIGVIWRGGGTDSNAAFMSRVTISVDTSKSQVSLKLGSVTAADTAIYYCARSRYDEEESMNYWGQGTSVTVSS |  | remarkably higher in CAR construct 1 than in CAR construct 2
 | H2: humanized anti-IGLV3-21^R110 CAR, VL SEQ ID NO: 7, VH SEQ ID NO: 12, scFv SEQ ID NO: 14 (protein) scFv: EIVLTQSPSSLSASVGDSVTITCRASGNIHSYLAWYQQKPGKAPKLLIYNAKTLADGVPSRFSGSGSGTQYTLTISSLQPEDFATYYCQHFWNTPPTFGAGTKLELKGGGGSGGGGSGGGGSGGGGSQVQLQESGPGLVKPSETLSLTCTVSGFSLTSYGIHWIRQSPGRGLEWIGVIWRGGGTDSNAAFMSRITISRDTSKTQVSLKLGSVTAADTAIYYCARSRYDEEESMNYWGQGTSVTVSS |  | remarkably higher in CAR construct 1 than in CAR construct 2
